Target: AβO(1-42), oligomeric non-fibrillar Aβ prepared from the peptide Aβ_(1-42) (UniProt P05067 672-713)
Test: SPR

- Kd: 76.8 nM
B1: TR#2, recombinant TR segment containing the extracellular domain (ectodomain) (domain or fragment, UniProt Q9UIK5 56-301, looked up)
chain: CSGYDDRENDLFLCDTNTCKFDGECLRIGDTVTCVCQFKCNNDYVPVCGSNGESYQNECYLRQAACKQQSEILVVSEGSCATDAGSGSGDGVHEGSGETSQKETSTCDICQFGAECDEDAEDVWCVCNIDCSQTNFNPLCASDGKSYDNACQIKEASCQKQEKIEVMSLGRCQDNTTTTTKSEDGHYARTDYAENANKLEESAREHHIPCPEHYNGFCMHGKCEHSINMQEPSCRCDAGYTGQHCE

Source: publication PMC5533101 (Journal of Alzheimer's disease : JAD, 2004)
